Measured values as given in US20200392203A1 (YEDA RESEARCH AND DEVELOPMENT, published 2020).

B1: soluble apical domain (sAD) of Neotoma albigula (White-throated woodrat) TfR1 (receptor)
chain: GSKIQVKCSAPNSVTITNASGGLYLVEYPEGYVAYSKATEVTGKLVHANFGTKKDFEDLDYAVNGSIVIVRAGKITIAEKVANAQSFNAIGVLIYKDRTKYPISRADEPLQGHSGLPSIPVQTISREAAEKLFQNMERDCPRSWNTDSSCKLELLQNRNVKLTVNNCLKE

Tests used:
[1] = target: native spike complex (glycoprotein complex, GPC) of Sabia virus (SABV) (Sabia virus (SABV))
[2] = target: native spike complex (glycoprotein complex, GPC) of Junin virus (JUNV) (Junin virus (JUNV))
[3] = target: GP1WWAV-Fc (GP1 domain of Whitewater Arroyo virus fused at its C' terminus to an antibody Fc portion) (Whitewater Arroyo virus (WWAV)) (UniProt Q911P0); assay: SPR (Biacore T200), single cycle kinetics; […]; 1:1 model
[4] = target: GP1GTOV-Fc (GP1 domain of Guanarito virus fused at its C' terminus to an antibody Fc portion) (Guanarito virus (GTOV)) (UniProt Q8AYW1); assay: SPR (Biacore T200), single-cycle kinetics; […]; 1:1 model fit
GP1GTOV-Fc (GP1 domain of Guanarito virus fused at its C' terminus to an antibody Fc portion) (Guanarito virus (GTOV)), sequence (Q8AYW1 87-240): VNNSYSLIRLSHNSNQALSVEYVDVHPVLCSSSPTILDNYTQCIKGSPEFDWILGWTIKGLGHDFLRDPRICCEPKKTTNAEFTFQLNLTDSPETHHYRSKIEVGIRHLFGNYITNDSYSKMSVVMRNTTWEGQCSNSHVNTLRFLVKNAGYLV

native spike complex (glycoprotein complex, GPC) of Sabia virus (SABV) (Sabia virus (SABV)), sequence (Q90037 2-58, chain 1 of 3): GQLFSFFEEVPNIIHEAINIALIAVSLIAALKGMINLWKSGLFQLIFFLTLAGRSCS
native spike complex (glycoprotein complex, GPC) of Sabia virus (SABV) (Sabia virus (SABV)), sequence (Q90037 59-254, chain 2 of 3): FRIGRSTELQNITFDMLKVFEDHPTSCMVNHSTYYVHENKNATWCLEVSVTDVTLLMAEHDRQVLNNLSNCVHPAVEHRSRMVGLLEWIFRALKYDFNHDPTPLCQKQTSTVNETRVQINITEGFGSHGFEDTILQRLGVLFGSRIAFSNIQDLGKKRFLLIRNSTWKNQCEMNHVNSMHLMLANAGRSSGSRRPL
native spike complex (glycoprotein complex, GPC) of Sabia virus (SABV) (Sabia virus (SABV)), sequence (Q90037 255-488, chain 3 of 3): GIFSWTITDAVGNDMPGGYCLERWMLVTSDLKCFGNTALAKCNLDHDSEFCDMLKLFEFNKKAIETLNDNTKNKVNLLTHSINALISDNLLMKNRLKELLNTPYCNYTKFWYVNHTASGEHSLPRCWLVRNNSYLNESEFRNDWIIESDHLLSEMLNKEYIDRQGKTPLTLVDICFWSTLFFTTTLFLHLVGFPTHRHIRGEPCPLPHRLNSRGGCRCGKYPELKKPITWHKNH
GP1WWAV-Fc (GP1 domain of Whitewater Arroyo virus fused at its C' terminus to an antibody Fc portion) (Whitewater Arroyo virus (WWAV)), sequence (Q911P0 87-241): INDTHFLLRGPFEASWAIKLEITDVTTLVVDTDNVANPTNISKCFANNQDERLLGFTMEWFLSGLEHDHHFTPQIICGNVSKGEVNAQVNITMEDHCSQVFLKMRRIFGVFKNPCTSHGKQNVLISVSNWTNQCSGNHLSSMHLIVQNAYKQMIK
native spike complex (glycoprotein complex, GPC) of Junin virus (JUNV) (Junin virus (JUNV)), sequence (P26313 2-58 limits assumed, chain 1 of 3): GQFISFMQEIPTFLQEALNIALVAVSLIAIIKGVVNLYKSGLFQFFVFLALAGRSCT
native spike complex (glycoprotein complex, GPC) of Junin virus (JUNV) (Junin virus (JUNV)), sequence (P26313 59-251 limits assumed, chain 2 of 3): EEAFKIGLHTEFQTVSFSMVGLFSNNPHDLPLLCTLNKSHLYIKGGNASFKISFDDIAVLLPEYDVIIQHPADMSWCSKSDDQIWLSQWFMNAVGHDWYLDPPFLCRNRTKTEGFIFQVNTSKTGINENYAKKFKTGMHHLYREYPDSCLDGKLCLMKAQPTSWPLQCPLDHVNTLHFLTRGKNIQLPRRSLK
native spike complex (glycoprotein complex, GPC) of Junin virus (JUNV) (Junin virus (JUNV)), sequence (P26313 252-485 limits assumed, chain 3 of 3): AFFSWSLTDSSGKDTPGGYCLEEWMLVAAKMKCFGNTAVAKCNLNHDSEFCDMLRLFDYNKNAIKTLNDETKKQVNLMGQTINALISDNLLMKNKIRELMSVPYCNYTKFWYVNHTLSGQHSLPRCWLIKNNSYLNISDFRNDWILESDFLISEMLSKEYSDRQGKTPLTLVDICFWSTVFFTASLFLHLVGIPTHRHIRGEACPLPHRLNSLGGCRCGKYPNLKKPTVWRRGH

Row | Molecule | pseudovirus neutralisation (luciferase, hTfR1-overexpressing HEK293 cells), IC50 [1] | pseudovirus neutralisation (luciferase, hTfR1-overexpressing HEK293 cells), IC50 [2] | Kd [3] | Kd [4]
1 | Arenacept (sAD fused at its C'-terminus to an Fc portion of IgG1) (Fc fusion) | 3.5 µg/mL | 1.5 µg/mL | – | –
2 | B1 | – | – | 1000 nM | 360 nM
